From publication doi:10.1101/2022.03.02.482546

B1: full-length human CEMIP (cell migration-inducing and hyaluronan-binding protein) (natural protein)
chain: TVAAGCPDQSPELQPWNPGHDQDHHVHIGQGKTLLLTSSATVYSIHISEGGKLVIKDHDEPIVLRTRHILIDNGGELHAGSALCPFQGNFTIILYGRADEGIQPDPYYGLKYIGVGKGGALELHGQKKLSWTFLNKTLHPGGMAEGGYFFERSWGHRGVIVHVIDPKSGTVIHSDRFDTYRSKKESERLVQYLNAVPDGRILSVAVNDEGSRNLDDMARKAMTKLGSKHFLHLGFRHPWSFLTVKGNPSSSVEDHIEYHGHRGSAAARVFKLFQTEHGEYFNVSLSSEWVQDVEWTEWFDHDKVSQTKGGEKISDLWKAHPGKICNRPIDIQATTMDGVNLSTEVVYKKGQDYRFACYDRGRACRSYRVRFLCGKPVRPKLTVTIDTNVNSTILNLEDNVQSWKPGDTLVIASTDYSMYQAEEFQVLPCRSCAPNQVKVAGKPMYLHIGEEIDGVDMRAEVGLLSRNIIVMGEMEDKCYPYRNHICNFFDFDTFGGHIKFALGFKAAHLEGTELKHMGQQLVGQYPIHFHLAGDVDERGGYDPPTYIRDLSIHHTFSRCVTVHGSNGLLIKDVVGYNSLGHCFFTEDGPEERNTFDHCLGLLVKSGTLLPSDRDSKMCKMITEDSYPGYIPKPRQDCNAVSTFWMANPNNNLINCAAAGSEETGFWFIFHHVPTGPSVGMYSPGYSEHIPLGKFYNNRAHSNYRAGMIIDNGVKTTEASAKDKRPFLSIISARYSPHQDADPLKPREPAIIRHFIAYKNQDHGAWLRGGDVWLDSCRFADNGIGLTLASGGTFPYDDGSKQEIKNSLFVGESGNVGTEMMDNRIWGPGGLDHSGRTLPIGQNFPIRGIQLYDGPINIQNCTFRKFVALEGRHTSALAFRLNNAWQSCPHNNVTGIAFEDVPITSRVFFGEPGPWFNQLDMDGDKTSVFHDVDGSVSEYPGSYLTKNDNWLVRHPDCINVPDWRGAICSGCYAQMYIQAYKTSNLRMKIIKNDFPSHPLYLEGALTRSTHYQQYQPVVTLQKGYTIHWDQTAPAELAIWLINFNKGDWIRVGLCYPRGTTFSILSDVHNRLLKQTSKTGVFVRTLQMDKVEQSYPGRSHYYWDEDSGLLFLKLKAQNEREKFAFCSMKGCERIKIKALIPKNAGVSDCTATAYPKFTERAVVDVPMPKKLFGSQLKTKDHFLEVKMESSKQHFFHLWNDFAYIEVDGKKYPSSEDGIQVVVIDGNQGRVVSHTSFRNSILQGIPWQLFNYVATIPDNSIVLMASKGRYVSRGPWTRVLEKLGADRGLKLKEQMAFVGFKGSFRPIWVTLDTEDHKAKIFQVVPIPVVKKKKL
B2: recombinant human slit homolog 2 protein (ligand)
chain: QCSCSGSTVDCHGLALRSVPRNIPRNTERLDLNGNNITRITKTDFAGLRHLRVLQLMENKISTIERGAFQDLKELERLRLNRNHLQLFPELLFLGTAKLYRLDLSENQIQAIPRKAFRGAVDIKNLQLDYNQISCIEDGAFRALRDLEVLTLNNNNITRLSVASFNHMPKLRTFRLHSNNLYCDCHLAWLSDWLRQRPRVGLYTQCMGPSHLRGHNVAEVQKREFVCSGHQSFMAPSCSVLHCPAACTCSNNIVDCRGKGLTEIPTNLPETITEIRLEQNTIKVIPPGAFSPYKKLRRIDLSNNQISELAPDAFQGLRSLNSLVLYGNKITELPKSLFEGLFSLQLLLLNANKINCLRVDAFQDLHNLNLLSLYDNKLQTIAKGTFSPLRAIQTMHLAQNPFICDCHLKWLADYLHTNPIETSGARCTSPRRLANKRIGQIKSKKFRCSAKEQYFIPGTEDYRSKLSGDCFADLACPEKCRCEGTTVDCSNQKLNKIPEHIPQYTAELRLNNNEFTVLEATGIFKKLPQLRKINFSNNKITDIEEGAFEGASGVNEILLTSNRLENVQHKMFKGLESLKTLMLRSNRITCVGNDSFIGLSSVRLLSLYDNQITTVAPGAFDTLHSLSTLNLLANPFNCNCYLAWLGEWLRKKRIVTGNPRCQKPYFLKEIPIQDVAIQDFTCDDGNDDNSCSPLSRCPTECTCLDTVVRCSNKGLKVLPKGIPRDVTELYLDGNQFTLVPKELSNYKHLTLIDLSNNRISTLSNQSFSNMTQLLTLILSYNRLRCIPPRTFDGLKSLRLLSLHGNDISVVPEGAFNDLSALSHLAIGANPLYCDCNMQWLSDWVKSEYKEPGIARCAGPGEMADKLLLTTPSKKFTCQGPVDVNILAKCNPCLSNPCKNDGTCNSDPVDFYRCTCPYGFKGQDCDVPIHACISNPCKHGGTCHLKEGEEDGFWCICADGFEGENCEVNVDDCEDNDCENNSTCVDGINNYTCLCPPEYTGELCEEKLDFCAQDLNPCQHDSKCILTPKGFKCDCTPGYVGEHCDIDFDDCQDNKCKNGAHCTDAVNGYTCICPEGYSGLFCEFSPPMVLPRTSPCDNFDCQNGAQCIVRINEPICQCLPGYQGEKCEKLVSVNFINKESYLQIPSAKVRPQTNITLQIATDEDSGILLYKGDKDHIAVELYRGRVRASYDTGSHPASAIYSVETINDGNFHIVELLALDQSLSLSVDGGNPKIITNLSKQSTLNFDSPLYVGGMPGKSNVASLRQAPGQNGTSFHGCIRNLYINSELQDFQKVPMQTGILPGCEPCHKKVCAHGTCQPSSQAGFTCECQEGWMGPLCDQRTNDPCLGNKCVHGTCLPINAFSYSCKCLEGHGGVLCDEEEDLFNPCQAIKCKHGKCRLSGLGQPYCECSSGYTGDSCDREISCRGERIRDYYQKQQGYAACQTTKKVSRLECRGGCAGGQCCGPLRSKRRKYSFECTDGSSFVDEVEKVVKCGCTRCVS
B3: recombinant human secreted protein acidic and rich in cysteine (natural protein)
chain: APQQEALPDETEVVEETVAEVTEVSVGANPVQVEVGEFDDGAEETEEEVVAENPCQNHHCKHGKVCELDENNTPMCVCQDPTSCPAPIGEFEKVCSNDNKTFDSSCHFFATKCTLEGTKKGHKLHLDYIGPCKYIPPCLDSELTEFPLRMRDWLKNVLVTLYERDEDNNLLTEKQKLRVKKIHENEKRLEAGDHPVELLARDFEKNYNMYIFPVHWQFGQLDQHPIDGYLSHTELAPLRAPLIPMEHCTTRFFETCDLDNDKYIALDEWAGCFGIKQKDIDKDLVI
B4: recombinant human high-mobility group protein B2 (natural protein)
chain: MGKGDPNKPRGKMSSYAFFVQTCREEHKKKHPDSSVNFAEFSKKCSERWKTMSAKEKSKFEDMAKSDKARYDREMKNYVPPKGDKKGKKKDPNAPKRPPSAFFLFCSEHRPKIKSEHPGLSIGDTAKKLGEMWSEQSAKDKQPYEQKAAKLKEKYEKDIAAYRAKGKSEAGKKGPGRPTGSKKKNEPEDEEEEEEEEDEDEEEEDEDEE
B5: recombinant human insulin-like growth factor-binding protein 7 (natural protein)
chain: SSSDTCGPCEPASCPPLPPLGCLLGETRDACGCCPMCARGEGEPCGGGGAGRGYCAPGMECVKSRKRRKGKAGAAAGGPGVSGVCVCKSRYPVCGSDGTTYPSGCQLRAASQRAESRGEKAITQVSKGTCEQGPSIVTPPKDIWNVTGAQVYLSCEVIGIPTPVLIWNKVKRGHYGVQRTELLPGDRDNLAIQTRGGPEKHEVTGWVLVSPLSKEDAGEYECHASNSQGQASASAKITVVDALHEIPVKKGEGAEL
B6: recombinant human hepatocyte growth factor activator (enzyme)
chain: QPGGNRTESPEPNATATPAIPTILVTSVTSETPATSAPEAEGPQSGGLPPPPRAVPSSSSPQAQALTEDGRPCRFPFRYGGRMLHACTSEGSAHRKWCATTHNYDRDRAWGYCVEATPPPGGPAALDPCASGPCLNGGSCSNTQDPQSYHCSCPRAFTGKDCGTEKCFDETRYEYLEGGDRWARVRQGHVEQCECFGGRTWCEGTRHTACLSSPCLNGGTCHLIVATGTTVCACPPGFAGRLCNIEPDERCFLGNGTGYRGVASTSASGLSCLAWNSDLLYQELHVDSVGAAALLGLGPHAYCRNPDNDERPWCYVVKDSALSWEYCRLEACESLTRVQLSPDLLATLPEPASPGRQACGRRHKKRTFLRPRIIGGSSSLPGSHPWLAAIYIGDSFCAGSLVHTCWVVSAAHCFSHSPPRDSVSVVLGQHFFNRTTDVTQTFGIEKYIPYTLYSVFNPSDHDLVLIRLKKKGDRCATRSQFVQPICLPEPGSTFPAGHKCQIAGWGHLDENVSGYSSSLREALVPLVADHKCSSPEVYGADISPNMLCAGYFDCKSDACQGDSGGPLACEKNGVAYLYGIISWGDGCGRLHKPGVYTRVANYVDWINDRIRPPRRLVAPS

Target: soluble form of full-length LRP1 (low-density lipoprotein receptor-related protein 1) (human)
Assay: ELISA

| Kd | Molecule |
| --- | --- |
| 20.2 nM | recombinant human ADAMTS1 (from UniProt Q9UHI8 50-967) (enzyme) |
| > 200 nM | recombinant human leukemia inhibitory factor (from UniProt P15018 23-202) (ligand) |
| 11 nM | recombinant human tumour necrosis factor-inducible gene 6 protein (from UniProt P98066 18-277) (natural protein) |
| 6.4 nM | recombinant human high-mobility group protein B1 (from UniProt P09429 1-215) (natural protein) |
| 2.6 nM | B1 |
| 2 nM | B2 |
| 41 nM | B3 |
| 3.9 nM | B4 |
| 11 nM | B5 |
| > 500 nM | B6 |
